Source: patent US7872117

Biological target: murine c-Met polypeptide (Met receptor as expressed on DA3 mouse mammary adenocarcinoma cells) (mouse) (UniProt P16056)
Assay: cell-based or functional assay

With “Hepatocyte growth factor/scatter factor (HGF/SF) (ligand)” the in vitro invasion through Matrigel (invading cells per filter, DA3 cells, HGF/SF 100 ng/ml) (cells per filter) was 80.
